Source: US20100184663A1 (UNIVERSITY OF UTAH RESEARCH FOUNDATION, published 2010)
Bridge positions count the residues as written; N and C are the ends. Square brackets hold non-standard residues; d marks the D form. Ends that are not written are not given here. I, II: the chains in the order shown.

B1: C0C(PIE7-GK)3 (peptide)
peptide 1: G[dA][dC][dD][dY][dP][dE][dW][dQ][dW][dL][dC][dA][dA]G[dK]
peptide 2: G[dA][dC][dD][dY][dP][dE][dW][dQ][dW][dL][dC][dA][dA]G[dK][dK]
modifications: disulfide I:3-I:12, II:3-II:12 (inferred); also: trimer: two chain 1 copies joined via C-terminal Lys by zero length spacers to the C-terminal Lys of central chain 2
B2: N0N(PIE7)2 (peptide)
peptide: [dK]G[dA][dC][dD][dY][dP][dE][dW][dQ][dW][dL][dC][dA][dA]
modifications: disulfide 4-13 (inferred); also: dimer joined N- to N-terminus by zero length spacer
B3: PIE7-GK-PEG4 (peptide)
peptide: Ac-G[dA][dC][dD][dY][dP][dE][dW][dQ][dW][dL][dC][dA][dA]G[dK]-NH2
modifications: disulfide 3-12 (inferred); also: PEG4 attached at the C-terminus, order with amide not given here
B4: C5C(PIE7-GK)2 (peptide)
peptide: G[dA][dC][dD][dY][dP][dE][dW][dQ][dW][dL][dC][dA][dA]G[dK]
modifications: disulfide 3-12 (inferred); also: dimer joined C- to C-terminus by PEG5 spacer on C-terminal Lys
B5: N0C(PIE7)2 (peptide)
peptide: [dK]G[dA][dC][dD][dY][dP][dE][dW][dQ][dW][dL][dC][dA][dA]
modifications: disulfide 4-13 (inferred); also: dimer joined N- to C-terminus by zero length spacer
B6: C9C(PIE7-GK)2 (peptide)
peptide: G[dA][dC][dD][dY][dP][dE][dW][dQ][dW][dL][dC][dA][dA]G[dK]
modifications: disulfide 3-12 (inferred); also: dimer joined C- to C-terminus by PEG9 spacer on C-terminal Lys
B7: PEG5-(PIE13)2 (peptide)
peptide: [dH][dP][dC][dD][dY][dP][dE][dW][dQ][dW][dL][dC][dK][dL]G[dK]
modifications: disulfide 3-12 (inferred); also: dimer crosslinked via internal Lys with PEG5 linker

Each binder was assayed against HIV-1 gp41 (JRFL strain) (HIV-1 JRFL) (assay: cell-based or functional assay).

Row | Binder | IC50 (JRFL), pseudovirion entry
1 | [dH][dP][dC][dD][dY][dP][dE][dW][dQ][dW][dL][dC][dE][dL]G[dK] (disulfide 3-12 (inferred); also: dimer joined C- to C-terminus by PEG5 spacer) [C5C(PIE12)2] | 14.2 nM
2 | B1 | 16.1 nM
3 | B2 | 1090 nM
4 | Ac-[dH][dP][dC][dD][dY][dP][dE][dW][dQ][dW][dL][dC][dR][dL]G[dK]-NH2 (disulfide 3-12 (inferred)) [PIE14] | 1050 nM
5 | Ac-G[dA][dC][dD][dY][dP][dE][dW][dQ][dW][dL][dC][dA][dA]G[dK][dK]-NH2 (disulfide 3-12 (inferred)) [PIE7-GKK] | 19100 nM
6 | B3 | 13100 nM
7 | B4 | 203 nM
8 | B5 | 402 nM
9 | Ac-[dH][dP][dC][dD][dY][dP][dE][dW][dQ][dW][dL][dC][dK][dL]G[dK]-NH2 (disulfide 3-12 (inferred)) [PIE13] | 1470 nM
10 | Ac-G[dA][dC][dD][dY][dP][dE][dW][dQ][dW][dL][dC][dA][dA]G[dK]-NH2 (disulfide 3-12 (inferred)) [PIE7-GK] | 15800 nM
11 | Ac-[dH][dP][dC][dD][dY][dP][dE][dW][dQ][dW][dL][dC][dE][dL]G[dK]-NH2 (disulfide 3-12 (inferred)) [PIE12] | 578 nM
12 | B6 | 215 nM
13 | [dH][dP][dC][dD][dY][dP][dE][dW][dQ][dW][dL][dC][dE][dL]G[dK] (disulfide 3-12 (inferred); also: trimer, C-termini joined by PEG5 spacers) [C5C(PIE12)3] | 2.77 nM
14 | [dK]G[dA][dC][dD][dY][dP][dE][dW][dQ][dW][dL][dC][dA][dA] (disulfide 4-13 (inferred); also: trimer, N-termini joined by PEG9 spacers) [N9N(PIE7)3] | 220 nM
15 | Ac-[dH][dA][dC][dD][dY][dP][dE][dW][dQ][dW][dL][dC][dE][dL]G[dK]-NH2 (disulfide 3-12 (inferred)) [PIE15] | 1450 nM
16 | [dK]G[dA][dC][dD][dY][dP][dE][dW][dQ][dW][dL][dC][dA][dA] (disulfide 4-13 (inferred); also: dimer joined N- to C-terminus by PEG5 spacer) [N5C(PIE7)2] | 300 nM
17 | [dK]G[dA][dC][dD][dY][dP][dE][dW][dQ][dW][dL][dC][dA][dA] (disulfide 4-13 (inferred); also: dimer joined N- to N-terminus by PEG5 spacer) [N5N(PIE7)2] | 1410 nM
18 | [dK]G[dA][dC][dD][dY][dP][dE][dW][dQ][dW][dL][dC][dA][dA] (disulfide 4-13 (inferred); also: dimer joined N- to C-terminus by PEG9 spacer) [N9C(PIE7)2] | 313 nM
19 | B7 | 15.1 nM
20 | Ac-[dK]G[dA][dC][dD][dY][dP][dE][dW][dQ][dW][dL][dC][dA][dA]G[dK]-NH2 (disulfide 4-13 (inferred)) [K-PIE7-GK] | 14800 nM

The binders below were run against HIV-1 gp41 (HXB2 strain) (HIV-1 HXB2, UniProt P04578 512-856) (assay: cell-based or functional assay).

Row | Binder | IC50 (HXB2), pseudovirion entry
21 | B1 | 0.117 nM
22 | B2 | 0.801 nM
23 | Ac-[dH][dP][dC][dD][dY][dP][dE][dW][dQ][dW][dL][dC][dR][dL]G[dK]-NH2 (disulfide 3-12 (inferred)) [PIE14] | 33.1 nM
24 | Ac-G[dA][dC][dD][dY][dP][dE][dW][dQ][dW][dL][dC][dA][dA]G[dK][dK]-NH2 (disulfide 3-12 (inferred)) [PIE7-GKK] | 382 nM
25 | B3 | 351 nM
26 | B4 | 0.355 nM
27 | B5 | 0.534 nM
28 | Ac-[dH][dP][dC][dD][dY][dP][dE][dW][dQ][dW][dL][dC][dK][dL]G[dK]-NH2 (disulfide 3-12 (inferred)) [PIE13] | 41.3 nM
29 | Ac-G[dA][dC][dD][dY][dP][dE][dW][dQ][dW][dL][dC][dA][dA]G[dK]-NH2 (disulfide 3-12 (inferred)) [PIE7-GK] | 389 nM
30 | B6 | 0.354 nM
31 | [dK]G[dA][dC][dD][dY][dP][dE][dW][dQ][dW][dL][dC][dA][dA] (disulfide 4-13 (inferred); also: trimer, N-termini joined by PEG9 spacers) [N9N(PIE7)3] | 0.25 nM
32 | Ac-[dH][dA][dC][dD][dY][dP][dE][dW][dQ][dW][dL][dC][dE][dL]G[dK]-NH2 (disulfide 3-12 (inferred)) [PIE15] | 66.7 nM
33 | [dK]G[dA][dC][dD][dY][dP][dE][dW][dQ][dW][dL][dC][dA][dA] (disulfide 4-13 (inferred); also: dimer joined N- to C-terminus by PEG5 spacer) [N5C(PIE7)2] | 0.575 nM
34 | [dK]G[dA][dC][dD][dY][dP][dE][dW][dQ][dW][dL][dC][dA][dA] (disulfide 4-13 (inferred); also: dimer joined N- to N-terminus by PEG5 spacer) [N5N(PIE7)2] | 1.13 nM
35 | [dK]G[dA][dC][dD][dY][dP][dE][dW][dQ][dW][dL][dC][dA][dA] (disulfide 4-13 (inferred); also: dimer joined N- to C-terminus by PEG9 spacer) [N9C(PIE7)2] | 0.329 nM
